This note sets out measurements from paper PMC7049810 (2020).

The Kd is the equilibrium constant for the complex coming apart. The low end stands for a tighter complex, the high end for a looser complex.

T1: PBP4, native, purified (Escherichia coli, UniProt P24228 21-477, where used as the labelled protein in MST: NT647 RED-NHS dye on amines)
T1 chain: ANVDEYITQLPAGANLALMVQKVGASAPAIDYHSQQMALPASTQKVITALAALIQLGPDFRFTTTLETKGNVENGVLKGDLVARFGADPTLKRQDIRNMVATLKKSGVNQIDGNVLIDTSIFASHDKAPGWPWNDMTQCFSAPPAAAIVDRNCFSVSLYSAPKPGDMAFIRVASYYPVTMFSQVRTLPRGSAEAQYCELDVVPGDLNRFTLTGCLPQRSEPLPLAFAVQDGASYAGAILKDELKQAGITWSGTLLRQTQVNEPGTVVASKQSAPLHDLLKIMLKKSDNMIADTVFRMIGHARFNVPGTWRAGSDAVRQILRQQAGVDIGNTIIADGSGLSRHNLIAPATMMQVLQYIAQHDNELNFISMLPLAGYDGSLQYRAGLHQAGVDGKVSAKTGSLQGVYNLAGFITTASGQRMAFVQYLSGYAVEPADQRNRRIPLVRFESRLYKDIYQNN

T2: PBP1A, purified (Escherichia coli, UniProt P02918 1-850, NT647 RED-NHS dye on amines (PBP1A was the labelled protein in all MST assays))
T2 chain: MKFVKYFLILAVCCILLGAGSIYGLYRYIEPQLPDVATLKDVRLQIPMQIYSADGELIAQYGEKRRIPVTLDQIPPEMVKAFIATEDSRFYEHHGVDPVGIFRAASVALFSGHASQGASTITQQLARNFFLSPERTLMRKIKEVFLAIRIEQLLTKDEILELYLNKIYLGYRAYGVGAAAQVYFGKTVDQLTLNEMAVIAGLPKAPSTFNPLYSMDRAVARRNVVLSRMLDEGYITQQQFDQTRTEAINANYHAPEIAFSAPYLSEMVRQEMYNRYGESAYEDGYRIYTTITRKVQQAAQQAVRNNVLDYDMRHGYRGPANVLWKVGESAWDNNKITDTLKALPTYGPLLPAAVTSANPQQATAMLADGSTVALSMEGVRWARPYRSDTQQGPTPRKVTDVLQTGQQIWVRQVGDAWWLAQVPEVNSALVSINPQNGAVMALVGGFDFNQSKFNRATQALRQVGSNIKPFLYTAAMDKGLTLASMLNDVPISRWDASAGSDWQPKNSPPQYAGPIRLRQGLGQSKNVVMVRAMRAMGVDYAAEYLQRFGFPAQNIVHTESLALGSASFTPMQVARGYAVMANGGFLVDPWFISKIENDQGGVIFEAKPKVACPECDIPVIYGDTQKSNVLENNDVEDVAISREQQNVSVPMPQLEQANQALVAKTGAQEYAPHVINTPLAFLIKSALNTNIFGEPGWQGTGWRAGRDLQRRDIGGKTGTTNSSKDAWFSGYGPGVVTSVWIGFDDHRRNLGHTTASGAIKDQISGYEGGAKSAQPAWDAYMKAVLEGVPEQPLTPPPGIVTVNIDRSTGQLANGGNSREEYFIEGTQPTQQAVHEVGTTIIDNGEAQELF

B1: PBP7, purified (enzyme)
chain: KTAAATTASQPEIASGSAMIVDLNTNKVIYSNHPDLVRPIASISKLMTAMVVLDARLPLDEKLKVDISQTPEMKGVYSRVRLNSEISRKDMLLLALMSSENRAAASLAHHYPGGYKAFIKAMNAKAKSLGMNNTRFVEPTGLSVHNVSTARDLTKLLIASKQYPLIGQLSTTREDMATFSNPTYTLPFRNTNHLVYRDNWNIQLTKTGFTNAAGHCLVMRTVINNKPVALVVMDAFGKYTHFADASRLRTWIETGKVMPVPAAALSYKKQKAAQMAAAGQTAQND
modifications: where used as the labelled protein in MST: NT647 RED-NHS dye on amines
B2: MepM (enzyme)
chain: YHRDATPIVKTIELEQNEIRSLLPEASEPIDQAAQEDEAIPQDELDDKIAGEAGVHEYVVSTGDTLSSILNQYGIDMGDITQLAAADKELRNLKIGQQLSWTLTADGELQRLTWEVSRRETRTYDRTAANGFKMTSEMQQGEWVNNLLKGTVGGSFVASARNAGLTSAEVSAVIKAMQWQMDFRKLKKGDEFAVLMSREMLDGKREQSQLLGVRLRSEGKDYYAIRAEDGKFYDRNGTGLAKGFLRFPTAKQFRISSNFNPRRTNPVTGRVAPHRGVDFAMPQGTPVLSVGDGEVVVAKRSGAAGYYVAIRHGRSYTTRYMHLRKILVKPGQKVKRGDRIALSGNTGRSTGPHLHYEVWINQQAVNPLTAKLPRTEGLTGSDRREFLAQAKEIVPQLRFD
B3: MepS (enzyme)
chain: CSANNTAKNMHPETRAVGSETSSLQASQDEFENLVRNVDVKSRIMDQYADWKGVRYRLGGSTKKGIDCSGFVQRTFREQFGLELPRSTYEQQEMGKSVSRSNLRTGDLVLFRAGSTGRHVGIYIGNNQFVHASTSSGVIISSMNEPYWKKRYNEARRVLSRS
modifications: where used as fl-MepS in MST: NT647 RED-NHS dye on amines

Common to all, as to experiment: MST
For one assay, the target named is T1, PBP4, native, purified.
The assay “MepS” deals with B3.
The target of a further assay is T2, PBP1A, purified.

For B1, in the assay with PBP4, native, purified, binding was put at a Kd of 332 nM. In the assay with MepS, B2 registered a dissociation constant (Kd) of 1180 nM. On to B3, for which the affinity with PBP1A, purified, expressed as Kd, was 91 nM.
